{"source": "paper PMC7695694", "about": "“Yeast Nup84-Nup133 complex structure details flexibility and reveals conservation of the membrane anchoring ALPS motif” (Nature Communications, 2020)", "binders": {"B1": {"name": "VHH-SAN9 (VHH)", "VHH": "QVQLVESGGGSVQAGGSLRLSCAVSGGTLSTLAMGWFRQAPGQEREFVARIGWTNGDTGYADSVKGRFTISRDNVKNTVYLQMNNLKPEDTALYYCATRRPYGSTLYPPNTESAHDNWGQGTQVTVSS", "notes": "structure with this nanobody deposited as PDB 6X03 (modelled as a generic nanobody without CDRs); also called VHH9; nanobody VHH-SAN9; source: E. coli LOBSTR-RIL(DE3), purified (Ni Sepharose, tag cut with bdSENP1, Superdex 75); not shown: 14xHis, N-terminal, cleaved; bdSUMO, N-terminal, cleaved"}, "B2": {"name": "VHH-SAN8 (VHH)", "VHH": "QLQLVETGGGLVQAGGSLRLSCVASGRTFTSYAMGWFRQAPGKEREFVAAISRLASGTDYADSVKGRFTISRNNDKNTVYLQMNNLIPEDTAVYYCAALQALRFSLPIAMATMKNGRADSWGQGTQVTVSS", "notes": "structures with this nanobody deposited as PDB 6X02 and 6X03 (modelled as a generic nanobody without CDRs); Selected by phage display from an alpaca immunised with the full-length Y complex, panned against Nup84; also called VHH8; nanobody VHH-SAN8; source: E. coli LOBSTR-RIL(DE3), purified (Ni Sepharose, tag cut with bdSENP1, Superdex 75); not shown: 14xHis, N-terminal, cleaved; bdSUMO, …"}, "B3": {"name": "VHH-SAN4 (VHH)", "VHH": "QLQLVESGGGSVQAGGSLTLSCTASESISKRIHGIGWFRQRRGEQREEIAYITTGGRPNLGDSVKDRFTISRDKSNGTVYLQMNSLKPEDTAVYYCHGRGRWWGTEGRLDYWGQGTQVTVSS", "notes": "structure with this nanobody deposited as PDB 6X05; also called nanobody VHH-SAN4; source: E. coli LOBSTR-RIL(DE3), purified (Ni Sepharose, tag cut with bdSENP1, Superdex 75); not shown: 14xHis, N-terminal, cleaved; bdSUMO, N-terminal, cleaved"}, "B4": {"name": "VHH-SAN5 (VHH)", "VHH": "QVQLVESGGGLVQAGGSLRLSCAASGSIGSLDAMAWYRRAPGKQRERVASISRYGTYYVDSVKGRFTISRDNAKNTVYLQMNSLKPEDTGVYYCKGVMEVGGVIDEYWGQGTQVTVSS", "notes": "structure with this nanobody deposited as PDB 6X04; also called nanobody VHH-SAN5; source: E. coli LOBSTR-RIL(DE3), purified (Ni Sepharose, tag cut with bdSENP1, Superdex 75); not shown: 14xHis, N-terminal, cleaved; bdSUMO, N-terminal, cleaved"}}, "conditions_in_all_cases": "both partners purified", "key": {"[1]": {"target": "T1, Nup84 (full-length, S. cerevisiae) (S. cerevisiae, UniProt P52891)", "T1 construct": "Nup84, S. cerevisiae, full length; The N-terminal 10xHis-8xArg-SUMO tag is 3C cleavable; also called scNup84", "T1 sequence (P52891 whole entry)": "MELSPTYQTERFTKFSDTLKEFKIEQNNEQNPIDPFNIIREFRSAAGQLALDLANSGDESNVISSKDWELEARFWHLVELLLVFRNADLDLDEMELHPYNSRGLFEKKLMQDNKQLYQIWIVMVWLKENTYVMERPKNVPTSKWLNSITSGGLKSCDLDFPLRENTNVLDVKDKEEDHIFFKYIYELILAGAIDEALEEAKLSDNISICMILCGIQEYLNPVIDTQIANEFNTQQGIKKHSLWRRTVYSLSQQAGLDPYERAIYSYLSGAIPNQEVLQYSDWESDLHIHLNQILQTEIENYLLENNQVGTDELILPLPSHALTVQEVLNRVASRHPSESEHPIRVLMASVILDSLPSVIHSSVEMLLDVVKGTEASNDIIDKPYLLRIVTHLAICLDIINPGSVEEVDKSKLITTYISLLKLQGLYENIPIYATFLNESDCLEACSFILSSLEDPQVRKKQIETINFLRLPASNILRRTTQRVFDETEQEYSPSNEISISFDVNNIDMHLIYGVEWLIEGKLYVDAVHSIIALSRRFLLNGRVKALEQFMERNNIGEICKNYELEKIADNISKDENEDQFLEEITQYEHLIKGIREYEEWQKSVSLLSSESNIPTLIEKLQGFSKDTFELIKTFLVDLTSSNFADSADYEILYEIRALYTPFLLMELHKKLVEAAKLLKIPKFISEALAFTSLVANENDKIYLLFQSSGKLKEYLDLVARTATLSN", "assay": "crystal structure; Nup84-Nup133CTD with VHH-SAN8 and VHH-SAN9, 7.4 Å; crystallised under the same conditions and in the same crystal form as the VHH-SAN8 complex"}, "[2]": {"target": "T2, Nup84-Nup133CTD heterodimeric complex (S. cerevisiae) (Saccharomyces cerevisiae (strain ATCC …, UniProt P52891;P36161))", "T2 construct": "Nup84, S. cerevisiae, full length; source: E. coli LOBSTR-RIL(DE3), co-expressed from a bicistronic vector, purified (Ni Sepharose, SP Sepharose, Superdex 200)", "T2 sequence (P52891 whole entry, chain 1 of 2)": "as the sequence (P52891 whole entry) above", "T2 sequence (P36161 521-1157, chain 2 of 2)": "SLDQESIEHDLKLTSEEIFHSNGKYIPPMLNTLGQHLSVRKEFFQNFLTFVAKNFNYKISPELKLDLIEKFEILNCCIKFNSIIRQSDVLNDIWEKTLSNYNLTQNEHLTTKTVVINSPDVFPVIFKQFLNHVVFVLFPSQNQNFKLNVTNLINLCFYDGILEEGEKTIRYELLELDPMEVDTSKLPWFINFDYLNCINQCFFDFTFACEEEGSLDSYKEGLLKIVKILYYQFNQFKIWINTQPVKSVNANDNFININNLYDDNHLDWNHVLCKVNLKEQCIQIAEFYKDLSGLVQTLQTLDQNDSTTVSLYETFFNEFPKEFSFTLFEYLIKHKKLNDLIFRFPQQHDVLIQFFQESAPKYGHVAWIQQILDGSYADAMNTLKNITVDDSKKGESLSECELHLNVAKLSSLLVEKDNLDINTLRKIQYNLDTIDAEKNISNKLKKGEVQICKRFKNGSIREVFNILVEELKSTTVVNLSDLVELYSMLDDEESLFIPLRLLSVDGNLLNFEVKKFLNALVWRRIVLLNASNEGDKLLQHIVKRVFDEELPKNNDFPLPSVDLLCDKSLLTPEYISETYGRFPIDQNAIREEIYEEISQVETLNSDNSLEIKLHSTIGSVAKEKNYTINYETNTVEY", "assay": "crystal structure; Nup84-Nup133CTD with VHH-SAN8 and VHH-SAN9, 7.4 Å; crystallised under the same conditions and in the same crystal form as the VHH-SAN8 complex"}, "[3]": {"target": "T1, Nup84 (full-length, S. cerevisiae)", "assay": "crystal structure; Nup84-Nup133CTD-VHH-SAN8, 6.4 Å, SAD with a [TeW6O24]6- derivative; crystals at 18 °C, PEG 8,000, ethylene glycol, imidazole/MES pH 6.5"}, "[4]": {"target": "T2, Nup84-Nup133CTD heterodimeric complex …", "assay": "crystal structure; Nup84-Nup133CTD-VHH-SAN8, 6.4 Å, SAD with a [TeW6O24]6- derivative; crystals at 18 °C, PEG 8,000, ethylene glycol, imidazole/MES pH 6.5"}, "[5]": {"target": "T3, Nup133 N-terminal domain (Nup133NTD, residues 55-481, S. cerevisiae) (S. cerevisiae, UniProt P36161)", "T3 construct": "Nup133, S. cerevisiae, N-terminal beta-propeller domain, residues 55-481; The 6xHis tag is 3C cleavable; also called scNup133NTD; WT-Nup133NTD; source: E. coli LOBSTR-RIL(DE3), purified (Ni Sepharose, Superdex 75)", "T3 sequence (P36161 55-481)": "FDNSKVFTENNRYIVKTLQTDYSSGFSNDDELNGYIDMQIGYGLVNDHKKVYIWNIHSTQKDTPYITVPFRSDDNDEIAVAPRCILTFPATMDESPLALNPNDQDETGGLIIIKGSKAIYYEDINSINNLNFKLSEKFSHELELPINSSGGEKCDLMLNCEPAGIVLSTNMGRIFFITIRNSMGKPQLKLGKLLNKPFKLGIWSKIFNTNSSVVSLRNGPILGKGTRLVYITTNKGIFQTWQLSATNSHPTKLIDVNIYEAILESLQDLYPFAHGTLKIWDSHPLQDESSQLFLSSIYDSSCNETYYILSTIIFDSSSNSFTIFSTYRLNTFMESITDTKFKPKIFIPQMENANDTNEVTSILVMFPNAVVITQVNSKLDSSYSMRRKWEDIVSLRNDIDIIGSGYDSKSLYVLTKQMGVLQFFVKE", "assay": "crystal structure; Nup133NTD-VHH-SAN4, 2.1 Å, molecular replacement; crystals at 18 °C, PEG 3,350, ammonium sulfate, Bis-Tris/HCl pH 5.5"}, "[6]": {"target": "T3, Nup133 N-terminal domain (Nup133NTD, …)", "assay": "crystal structure; Nup133NTD-VHH-SAN5, molecular replacement; six copies in the asymmetric unit; crystals at 18 °C, PEG MME 2,000, potassium chloride, Tris/HCl pH 8.0"}}}
{"binder": "B1", "values": [{"measurement": "binding result", "setting": "[1]", "result": "binds"}, {"measurement": "binding result", "setting": "[2]", "result": "binds"}]}
{"binder": "B2", "values": [{"measurement": "binding result", "setting": "[3]", "result": "binds"}, {"measurement": "binding result", "setting": "[4]", "result": "binds"}]}
{"binder": "B3", "values": [{"measurement": "binding result", "setting": "[5]", "result": "binds"}]}
{"binder": "B4", "values": [{"measurement": "binding result", "setting": "[6]", "result": "binds"}]}
